In this test the target is HLA-A*02-presented PRAME-004 (SEQ ID NO:97). As to the kind of experiment: cell-based or functional assay.

B1: TCR R16P1E8 (TCR, V domains shown)
V domain 1: QKEVEQDPGPLSVPEGAIVSLNCTYSNSAFQYFMWYRQYSRKGPELLMYTYSSGNKEDGRFTAQVDKSSKYISLFIRDSQPSDSATYLCAMSEAAGNKLTFGGGTRVLVKP
V domain 2: EAGVAQSPRYKIIEKRQSVAFWCNPISGHATLYWYQQILGQGPKLLIQFQNNGVVDDSQLPKDRFSAERLKGVDSTLKIQPAKLEDSAVYLCASSYTNQGEAFFGQGTRLTVVE
As for B1, the “EC50 of IFNγ release from CD8+ T-cells with the TCR, T2 target cells loaded with PRAME-004 from 10 µM to 10 pM” value is approximately 1 µM.

B2: TCR R17P1D7 (TCR, V domains shown)
V domain 1: QTVTQSQPEMSVQEAETVTLSCTYDTSESDYYLFWYKQPPSRQMILVIRQEAYKQQNATENRFSVNFQKAAKSFSLKISDSQLGDAAMYFCAYRWAQGGSEKLVFGKGTKLTVNP
V domain 2: DIYQTPRYLVIGTGKKITLECSQTMGHDKMYWYQQDPGMELHLIHYSYGVNSTEKGDLSSESTVSRIRTEHFPLTLESARPSHTSQYLCATELWSSGGTGELFFGEGSRLTVLE
Take B2: the “EC50 of IFNγ release from CD8+ T-cells with the TCR, T2 target cells loaded with PRAME-004 from 10 µM to 10 pM” value was 1.83 nM.

The values above are taken from patent US20200123221A1 (IMMATICS BIOTECHNOLOGIES, published 2020).
